Test [1] deals with T1, HIV-1 YU-2 gp120 (wild-type gp120YU-2, monomeric) (HIV-1 (YU-2), UniProt P35961 32-498).
T1 construct: domain: gp120; only gp120 stood in the assay
Nature of the test: SPR competition, sCD4 inhibition: inhibition of gp120 binding to immobilized sCD4.

Test [2] addresses T1, HIV-1 YU-2 gp120 (wild-type gp120YU-2, …). The experiment in a line: SPR competition, 17b inhibition: inhibition of gp120 binding to immobilized mAb 17b.
Test [3] has the same target. Nature of the test: SPR competition: fixed 250 nM HIV-1 YU-2 gp120 with increasing peptide passed over immobilized sCD4; inhibition of gp120 binding to sCD4.
Test [4] has the same target. The experiment in a line: >.
For test [5] the target is unchanged. Nature of the test: SPR competition: fixed 250 nM HIV-1 YU-2 gp120 with increasing peptide passed over immobilized mAb 17b; inhibition of gp120 binding to 17b.
The target is the same in test [6]. Nature of the test: SPR competition binding assay on gp120.
Test [7] deals with HIV-1 BaL.01 envelope on BaL.01 pseudotyped virus (HIV-1 (BaL.01)). The experiment in a line: cell-based or functional assay.
Test [8] deals with T2, HIV-1 JR-FL envelope (gp120) on JR-FL pseudotyped virus (HIV-1 (JR-FL)). Nature of the test: cell-based or functional assay.
Test [9] concerns the target T2, HIV-1 JR-FL envelope (gp120) on JR-FL …. Nature of the test: cell-based or functional assay. The source holds these as a separate data set.
The target of test [10] is T1, HIV-1 YU-2 gp120 (wild-type gp120YU-2, …). Nature of the test: SPR competition on gp120; which of sCD4 or 17b is not said.
Test [11] shares this target. Nature of the test: SPR competition (Biacore 3000): 250 nM gp120 YU-2 with increasing peptide over immobilised sCD4; inhibition of CD4 binding to gp120. In general terms: SPR reads the build-up and loss of mass on a sensor chip optically.
The target is the same in test [12]. Nature of the test: SPR competition (Biacore 3000): 250 nM gp120 YU-2 with increasing peptide over immobilised mAb 17b; inhibition of mAb 17b binding to gp120.
For test [13] the target is unchanged. Nature of the test: SPR competition: fixed 250 nM HIV-1 YU-2 gp120 with increasing peptide passed over immobilized sCD4; inhibition of gp120 binding to sCD4. This is another data set of the same source.
The target is the same in test [14]. Nature of the test: SPR competition (Biacore 3000): 250 nM gp120 YU-2 with increasing peptide over immobilised sCD4.
The target is the same in test [15]. Nature of the test: SPR competition (Biacore 3000): 250 nM gp120 YU-2 with increasing peptide over immobilised mAb 17b.
For test [16] the target is unchanged. Nature of the test: SPR competition: fixed 250 nM HIV-1 YU-2 gp120 with increasing peptide passed over immobilized sCD4; inhibition of gp120 binding to sCD4. This is another data set of the same source.
Test [17] has the same target. Nature of the test: SPR competition: fixed 250 nM HIV-1 YU-2 gp120 with increasing peptide passed over immobilized mAb 17b; inhibition of gp120 binding to 17b. The source holds these as a separate data set.

Starred links: 1 amine or outer side, 2 acyl side, 3 side chain; linkers in the order of their positions; H or OH if unused. Positions of bridges follow the written chain, without caps; N, C: chain ends. Non-standard residues stand in square brackets, D forms with d. No end group written: not given here. X2 = (2S,4S)‑4‑(4-ferrocenyl-1H-1,2,3-triazol-1-yl)pyrrolidine‑2‑carboxylic acid, O=C([C@@H]1C[C@H](n2cc(-[c-]3cccc3)nn2)CN1[*:1])[*:2].[Fe+2].c1cc[cH-]c1; X3 = (2S,4S)‑4‑(4-ferrocenyl-1H-1,2,3-triazol-1-yl)proline, O=C([C@@H]1C[C@H](n2cc(-[c-]3cccc3)nn2)CN1[*:1])[*:2].[Fe+2].c1cc[cH-]c1; Pro(cis-4-Trz(4-CH2CH2Ph)) = O=C(O)[C@@H]1C[C@H](n2cc(CCc3ccccc3)nn2)CN1; Bta = N[C@@H](Cc1csc2ccccc12)C(=O)O; Gly(cPr) = N[C@H](C(=O)O)C1CC1; Nle = CCCC[C@H](N)C(=O)O; Orn = NCCC[C@H](N)C(=O)O; Dab = NCC[C@H](N)C(=O)O

B1: AAR031 (peptide)
peptide: DNI[Pro(cis-4-Trz(4-CH2CH2Ph))]W[Orn]-NH2
modifications: lactam 1-6; N-terminus assumed
SMILES: CC[C@H](C)[C@@H]1NC(=O)[C@H](CC(N)=O)NC(=O)[C@@H](N)CC(=O)NCCC[C@@H](C(N)=O)NC(=O)[C@H](Cc2c[nH]c3ccccc23)NC(=O)[C@@H]2C[C@H](n3cc(CCc4ccccc4)nn3)CN2C1=O
The term IC50 denotes the concentration needed to halve the response being measured. The low end stands for greater potency, the high end for weaker potency. Consider B1, for which the results for the IC50 in test [1] and in test [2] were 5700 nM and 3900 nM, respectively.

B2: AAR030 (peptide)
peptide: ENI[Pro(cis-4-Trz(4-CH2CH2Ph))]W[Dab]-NH2
modifications: lactam 1-6
notes: also called macrocycle AAR030
As to B2, the IC50 in test [1] and in [2] was > 20000 nM in each case.

B3: AAR024A (peptide)
peptide: IENI[Pro(cis-4-Trz(4-CH2CH2Ph))]WK-NH2
modifications: N-terminus assumed
SMILES: CC[C@H](C)[C@H](N)C(=O)N[C@@H](CCC(=O)O)C(=O)N[C@@H](CC(N)=O)C(=O)N[C@H](C(=O)N1C[C@@H](n2cc(CCc3ccccc3)nn2)C[C@H]1C(=O)N[C@@H](Cc1c[nH]c2ccccc12)C(=O)N[C@@H](CCCCN)C(N)=O)[C@@H](C)CC
notes: Acyclic (linear) counterpart of AAR024; also called acyclic analogue of AAR024; linear AAR024A
For the molecule B3, the half-inhibitory concentration (IC50) in test [3] amounted to 7890 nM; in [5], 11300 nM; in test [1] it was 7890 nM; in [2] it was 11300 nM. Also, the “fold less active than AAR024” value in test [4] was 50 fold.

B4: AAR032 (peptide)
peptide: DNI[Pro(cis-4-Trz(4-CH2CH2Ph))]W[Dab]-NH2
modifications: lactam 1-6; N-terminus assumed
SMILES: CC[C@H](C)[C@@H]1NC(=O)[C@H](CC(N)=O)NC(=O)[C@@H](N)CC(=O)NCC[C@@H](C(N)=O)NC(=O)[C@H](Cc2c[nH]c3ccccc23)NC(=O)[C@@H]2C[C@H](n3cc(CCc4ccccc4)nn3)CN2C1=O
In the case of B4, the “fold improvement vs AAR031” value in test [6] is ~10 fold. Also, the IC50 in test [1] is 500 nM; in test [2] it was 400 nM.

B5: AAR024b (peptide)
peptide: IENI[X3]WK-NH2
modifications: lactam 2-7
notes: Ferrocenyl analogue of AAR024
As to B5, in test [7], the “IC50, HIV-1 infection inhibition, Bal.01 pseudotyped virus” value was 650 nM. Also, the “IC50, HIV-1 infection inhibition, JR-FL pseudotyped virus” value in test [8] was determined as 603 nM. The IC50 in test [1] stood at 40 nM; in test [2], 37.6 nM.

B6: AAR029b (peptide)
peptide: DNI[X2]WK-NH2
modifications: lactam 1-6
notes: Ferrocenyl analogue of AAR029
In the case of B6, the “IC50, HIV-1 infection inhibition, Bal.01 pseudotyped virus” value in test [7] worked out at 210 nM. For the same molecule, in [8], the “IC50, HIV-1 infection inhibition, JR-FL pseudotyped virus” value was determined as 190 nM. Moreover, in [9], the “gp120 shedding EC50 (JR-FL pseudotyped virus, Western blot densitometry of supernatant)” value came to 316 nM. Also, the IC50 in test [1] was 32 nM; in [2] it was 35 nM.

B7: AAR029F (peptide)
peptide: DNI[(2S,4S)‑4‑(4-(adamantan-2-yl)-1H-1,2,3-triazol-1-yl)pyrrolidine‑2‑carboxylic acid]WK-NH2
modifications: lactam 1-6
As for B7, the “IC50, HIV-1 infection inhibition, Bal.01 pseudotyped virus” value in test [7] is ~1300 nM. In addition, the IC50 in test [1] and in [2] was ~200 nM each time.

B8: AAR024 (peptide)
peptide: IENI[Pro(cis-4-Trz(4-CH2CH2Ph))]WK-NH2
modifications: lactam 2-7; N-terminus assumed
SMILES: CC[C@H](C)[C@H](N)C(=O)N[C@H]1CCC(=O)NCCCC[C@@H](C(N)=O)NC(=O)[C@H](Cc2c[nH]c3ccccc23)NC(=O)[C@@H]2C[C@H](n3cc(CCc4ccccc4)nn3)CN2C(=O)[C@H]([C@@H](C)CC)NC(=O)[C@H](CC(N)=O)NC1=O
notes: Cyclic peptide triazole; also called cyclic heptapeptide AAR024
Take B8: in test [10], the “fold more active than the linear AAR024A” value was > 40 fold. The IC50 in [11] amounted to 138 nM; in test [12] it was 269 nM.

B9: AAR036 (peptide)
peptide: DN[Nle][X2]WK-NH2
modifications: lactam 1-6
Take B9: the half-inhibitory concentration (IC50) in [1] and in test [2] was ~2000 nM each time.

B10: AAR026 (peptide)
peptide: ENNI[Pro(cis-4-Trz(4-CH2CH2Ph))]WK-NH2
modifications: lactam 1-7; N-terminus assumed
SMILES: CC[C@H](C)[C@@H]1NC(=O)[C@H](CC(N)=O)NC(=O)[C@H](CC(N)=O)NC(=O)[C@@H](N)CCC(=O)NCCCC[C@@H](C(N)=O)NC(=O)[C@H](Cc2c[nH]c3ccccc23)NC(=O)[C@@H]2C[C@H](n3cc(CCc4ccccc4)nn3)CN2C1=O
notes: Cyclic peptide triazole
In the case of B10, the IC50 worked out at 541 nM in [13], 540 nM in [14], 541 nM in test [1] and 384 nM in test [15].

B11: AAR042 (peptide)
peptide: DN[Gly(cPr)][X2]WK-NH2
modifications: lactam 1-6
On to B11, for which the IC50 in test [1] and in test [2] was ~2000 nM each time.

B12: AAR029E (peptide)
peptide: DNI[X2][Bta]K-NH2
modifications: lactam 1-6
With B12, the “IC50, HIV-1 infection inhibition, Bal.01 pseudotyped virus” value in test [7] worked out at 26 nM. Further, the IC50 in test [1] and in test [2] was ~20 nM in each case.

B13: AAR029 (peptide)
peptide: DNI[Pro(cis-4-Trz(4-CH2CH2Ph))]WK-NH2
modifications: lactam 1-6
notes: Cyclic hexapeptide triazole; also called minimized hexapeptide AAR029; macrocycle AAR029
Turning to B13, the “IC50, HIV-1 infection inhibition, Bal.01 pseudotyped virus” value in test [7] amounted to 2020 nM. Moreover, the “IC50, HIV-1 infection inhibition, JR-FL pseudotyped virus” value in [8] was determined as 2330 nM. In addition, the IC50 in test [14] was 85 nM; in [16] it was 85.2 nM; in test [17], 95.5 nM; in [15], 96 nM. In test [10], the “fold more active than AAR029A” value was > 200 fold. For the same molecule, in test [6], the “fold enhanced activity vs AAR029b” value is ~2 fold.

B14: AAR029H (peptide)
cyclic peptide: DNI[(2S,4S)‑4‑(4-(4-ethylphenyl)-1H-1,2,3-triazol-1-yl)pyrrolidine‑2‑carboxylic acid]WK-NH2
modifications: lactam 1-6
Regarding B14, the “IC50, HIV-1 infection inhibition, Bal.01 pseudotyped virus” value in test [7] was ~1900 nM. In addition, the IC50 in test [1] was ~318 nM; in [2] it was ~245 nM.

For the origin of these results see patent US20190175688A1 (DREXEL UNIVERSITY, published 2019).
